Results from patent US20240301052A1 (LANOVA MEDICINES DEVELOPMENT, published 2024).
Read-outs that look alike come from different tables or passages of the source.

Assays:
human SLC34A2 [1] = biological target: T1, human SLC34A2 (human, UniProt O95436 1-690); assay: FACS, OVCAR3 cells
T1 construct: whole, on cells; also called human solute carrier 34 A2; NaPi2b
T1 sequence (looked up): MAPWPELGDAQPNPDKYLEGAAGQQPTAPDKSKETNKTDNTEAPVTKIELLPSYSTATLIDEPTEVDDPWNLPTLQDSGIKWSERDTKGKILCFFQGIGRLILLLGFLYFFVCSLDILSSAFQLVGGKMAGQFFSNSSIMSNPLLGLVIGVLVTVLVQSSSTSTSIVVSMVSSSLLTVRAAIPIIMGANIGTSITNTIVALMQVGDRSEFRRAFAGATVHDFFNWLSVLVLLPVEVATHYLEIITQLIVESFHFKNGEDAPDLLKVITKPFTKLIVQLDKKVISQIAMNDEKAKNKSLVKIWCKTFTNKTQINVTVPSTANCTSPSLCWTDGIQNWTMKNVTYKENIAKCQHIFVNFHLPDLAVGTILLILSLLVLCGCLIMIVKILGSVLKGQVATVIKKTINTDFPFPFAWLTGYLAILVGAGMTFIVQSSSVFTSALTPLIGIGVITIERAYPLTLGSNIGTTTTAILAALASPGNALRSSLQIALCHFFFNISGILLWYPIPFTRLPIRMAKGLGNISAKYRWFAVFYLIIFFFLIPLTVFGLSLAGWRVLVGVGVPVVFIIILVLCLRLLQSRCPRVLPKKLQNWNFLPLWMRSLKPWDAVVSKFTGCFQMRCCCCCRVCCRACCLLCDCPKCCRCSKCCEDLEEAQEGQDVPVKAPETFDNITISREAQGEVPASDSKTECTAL
Method: The binding of these humanized antibodies to OVCAR3 cells was evaluated as described above, and the results are shown in FIG. 12A-D and Tables 16A-D.

human SLC34A2 [2] = biological target: T1, human SLC34A2; assay: FACS, OVCAR3 cells; remark: listed apart in the source
Outline: (§1)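 First, cells expressing human SLC34A2 are incubated with hu Abs at 4° C. for 60 minutes. Next they are washed twice and stained with fluorescent secondary antibody for 30 minutes at 4° C. Finally, after two further washes, binding is measured by flow cytometry.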

human SLC34A2 [3] = biological target: T1, human SLC34A2; assay: FACS, OVCAR3 cells; remark: listed apart in the source
human SLC34A2 [4] = biological target: T1, human SLC34A2; assay: FACS, HEK293/human SLC34A2 cells
Outline: as §1

human SLC34A2 [5] = biological target: T1, human SLC34A2; assay: FACS, RMG-1 cells
Outline: as §1

Rhesus SLC34A2 [6] = biological target: T2, Rhesus SLC34A2 (Rhesus, UniProt F7HDA3 1-690); assay: FACS, HEK293/Rhesus SLC34A2 cells
T2 construct: whole, on cells
T2 sequence: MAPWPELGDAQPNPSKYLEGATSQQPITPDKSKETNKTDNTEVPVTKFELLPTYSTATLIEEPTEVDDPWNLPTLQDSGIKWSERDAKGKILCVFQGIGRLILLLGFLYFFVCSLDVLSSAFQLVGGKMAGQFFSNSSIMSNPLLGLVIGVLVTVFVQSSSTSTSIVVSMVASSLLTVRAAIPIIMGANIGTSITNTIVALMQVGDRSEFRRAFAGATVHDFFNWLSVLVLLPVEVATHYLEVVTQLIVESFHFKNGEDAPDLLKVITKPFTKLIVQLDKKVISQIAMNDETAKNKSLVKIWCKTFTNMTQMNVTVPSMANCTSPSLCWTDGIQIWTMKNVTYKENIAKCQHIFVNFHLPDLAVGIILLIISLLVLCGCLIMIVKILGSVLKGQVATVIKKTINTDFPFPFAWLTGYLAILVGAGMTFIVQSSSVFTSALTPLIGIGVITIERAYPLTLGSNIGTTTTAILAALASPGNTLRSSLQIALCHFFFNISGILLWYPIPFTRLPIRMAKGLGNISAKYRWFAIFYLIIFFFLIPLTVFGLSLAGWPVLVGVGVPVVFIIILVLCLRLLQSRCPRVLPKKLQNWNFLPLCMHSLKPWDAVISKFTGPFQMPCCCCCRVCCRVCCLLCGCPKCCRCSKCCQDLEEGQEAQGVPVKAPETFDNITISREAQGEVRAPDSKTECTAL

Rhesus SLC34A2 [7] = biological target: T2, Rhesus SLC34A2; assay: FACS, HEK293/Rhesus SLC34A2 cells; remark: listed apart in the source
human SLC34A2 [8] = biological target: T1, human SLC34A2; assay: FACS, HEK293/human SLC34A2 cells; remark: listed apart in the source
Method: The PTM-derisked VH chains were first tested for their impact on target binding. Cell based binding of PTM Abs on human SLC34A2 expressing cells were assessed using flow cytometry. Briefly, the HEK293/H_SLC34A2 cells were incubated with PTM Abs (from 200 nM, 4 folds dilution, 8 points). After incubation at 4° C. for 60 minutes, the cells were washed with FACS buffer twice, then stained with fluorescent conjugated secondary antibody at 4° C. for 30 minutes. After that the cells were washed twice and analyzed by flow cytometry.

human SLC34A2 [9] = biological target: T1, human SLC34A2; assay: cell-based or functional assay
human SLC34A2 [10] = biological target: T1, human SLC34A2; assay: cell-based or functional assay; remark: listed apart in the source
human SLC34A2 [11] = biological target: T1, human SLC34A2; assay: FACS, HEK293/human SLC34A2 cells; remark: listed apart in the source
Method: Briefly, OVCAR3 cells or HEK293 cells expressing human SLC34A2 were incubated with chimeric antibodies (from 200 nM, 4 folds dilution, 8 points). After incubation at 4° C. for 60 minutes, the cells were washed with FACS buffer twice, then stained with fluorescent conjugated secondary antibody at 4° C. for 30 minutes. After that the cells were washed twice and analyzed by flow cytometry.

human SLC34A2 [12] = biological target: T1, human SLC34A2; assay: FACS, RMG-1 cells; remark: listed apart in the source
Outline: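 Flow-cytometric binding of chimeric antibodies (8-point, 4-fold dilutions from 200 nM) to RMG-1 cells, 60 min at 4° C, followed by fluorescent secondary antibody for 30 min at 4° C.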

Rhesus SLC34A2 [13] = biological target: T2, Rhesus SLC34A2; assay: FACS, HEK293/Rhesus SLC34A2 cells; remark: listed apart in the source
Method: Briefly, the Rhesus SLC34A2 expressing HEK293 engineering cells (HEK293/Rhesus_SLC34A2) were incubated with chimeric Abs (from 200 nM, 4 folds dilution, 8 points). After incubation at 4° C. for 60 minutes, the cells were washed with FACS buffer twice, then stained with fluorescent conjugated secondary antibody at 4° C. for 30 minutes. After that the cells were washed twice and analyzed by flow cytometry.

Cynomolgus SLC34A2 = biological target: T3, Cynomolgus SLC34A2 (Cynomolgus, UniProt A0A2K5UHY1 1-690); assay: FACS, cells expressing Cynomolgus SLC34A2
T3 construct: whole, on cells; also called Cyno SLC34A2
T3 sequence: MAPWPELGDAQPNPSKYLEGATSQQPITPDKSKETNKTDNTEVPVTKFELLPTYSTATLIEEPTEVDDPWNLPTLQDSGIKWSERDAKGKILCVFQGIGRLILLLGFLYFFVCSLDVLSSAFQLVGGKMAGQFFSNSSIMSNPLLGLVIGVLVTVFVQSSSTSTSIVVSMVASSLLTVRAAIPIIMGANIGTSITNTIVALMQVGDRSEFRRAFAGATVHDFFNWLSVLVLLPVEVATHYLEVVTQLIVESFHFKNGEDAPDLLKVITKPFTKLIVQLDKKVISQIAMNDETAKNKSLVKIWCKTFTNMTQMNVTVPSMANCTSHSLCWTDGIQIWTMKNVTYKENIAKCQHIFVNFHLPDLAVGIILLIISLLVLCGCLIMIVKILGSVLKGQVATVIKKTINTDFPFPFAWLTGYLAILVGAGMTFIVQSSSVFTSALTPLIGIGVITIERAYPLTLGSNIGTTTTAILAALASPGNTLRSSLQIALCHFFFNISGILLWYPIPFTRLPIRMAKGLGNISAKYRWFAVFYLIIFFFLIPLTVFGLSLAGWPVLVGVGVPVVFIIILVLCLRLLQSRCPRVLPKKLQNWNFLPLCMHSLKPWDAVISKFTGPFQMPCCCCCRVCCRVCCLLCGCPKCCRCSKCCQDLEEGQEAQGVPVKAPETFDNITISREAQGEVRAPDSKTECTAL

human SLC34A2 [14] = biological target: T1, human SLC34A2; assay: FACS, OVCAR3 cells; remark: listed apart in the source
Outline: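 Flow cytometry binding: cells (OVCAR3, or HEK293 transfected with human SLC34A2) exposed 60 min at 4° C to chimeric hIgG1, 8-point 4-fold series starting 200 nM. Washed, stained 30 min at 4° C with fluorescent anti-human secondary, then analysed.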

human SLC34A2 [15] = biological target: T1, human SLC34A2; assay: cell-based or functional assay; remark: listed apart in the source

B1: 30H9B8F9 VH_P1/VL hIgG1 (antibody, V domains shown)
VH: QVQLQQPGAELVKPGASVKMSCKTSGYTFTTNNMHWVKQTPGQGLEWIGAIYPGSGATAYNQKFKGKATLTADKSSSTAYMQLSSLTSEASAVYYCARGMYGHGAMDYWGQGTSVIVSS
VL: DIVMTQSHKFMSRSVGDRVRITCKASQDVGTAVAWYQQKPGQSPKLLIYWATTRHSGVPDRFTGSGSGTDFIFTISNVQSEDLADYFCQQYSSNPLTFGAGTKLELK
notes: PTM-derisked chimeric, hIgG1; that P1 is the N=>S version follows from the humanized .p1 chains; also called 30H9B8F9.p1 hIgG1
EC50 (human SLC34A2 [1]): 0.68 nM | Top (MFI) (human SLC34A2 [1]): 28700 MFI | EC50 (human SLC34A2 [2]): 0.37 nM | EC50 (human SLC34A2 [3]): 1.5 nM | Top (MFI) (human SLC34A2 [3]): 70400 MFI | EC50 (human SLC34A2 [4]): 1.18 nM | Top (human SLC34A2 [4]): 35700 MFI | EC50 (human SLC34A2 [5]): 1.09 nM | Top (human SLC34A2 [5]): 11100 MFI | EC50 (Rhesus SLC34A2 [6]): 0.8 nM | Top (MFI) (Rhesus SLC34A2 [6]): 17000 MFI | EC50 (Rhesus SLC34A2 [7]): 2 nM | Top (MFI) (Rhesus SLC34A2 [7]): 47400 MFI | EC50 (human SLC34A2 [8]): 0.89 nM | Top (MFI) (human SLC34A2 [8]): 31700 MFI | ADCC reporter EC50 (human SLC34A2 [9]): 2.52 nM | ADCC reporter Top (MFI) (human SLC34A2 [9]): 126000 MFI

B2: 62G10E4G8 VH_P3/VL hIgG1 (antibody, V domains shown)
VH: QVQLQQSGAEVVKPGASVKMSCKASGYTFPSYITHWVKQTPGQGLEWIGAIYPGNADTSYIQKFKGKATLTADKSSSTAYMQLSSLTSEDSAVYYCARGTYGTSAWFTYWGQGTLVTVSA
VL: DIVLTQSPATLSVTPGDSVSLSCRARQNIGNNLYWYQQKSHESPRLLIKYASQSISGIPSRFSGSGSGTDFTLTINSVETEDFGVYFCQQSFSWPLTFGAGTKLELK
notes: PTM-derisked chimeric, hIgG1; that P3 is the NA version follows from the humanized .p3 chains; also called 62G10E4G8.p3 hIgG1
EC50 (human SLC34A2 [1]): 6.98 nM | Top (MFI) (human SLC34A2 [1]): 30300 MFI | EC50 (human SLC34A2 [2]): 6.98 nM | EC50 (human SLC34A2 [3]): 9.1 nM | Top (MFI) (human SLC34A2 [3]): 72500 MFI | EC50 (human SLC34A2 [4]): 9.08 nM | Top (human SLC34A2 [4]): 35700 MFI | EC50 (human SLC34A2 [5]): 14.8 nM | Top (human SLC34A2 [5]): 11200 MFI | EC50 (Rhesus SLC34A2 [6]): 5 nM | Top (MFI) (Rhesus SLC34A2 [6]): 14400 MFI | EC50 (Rhesus SLC34A2 [7]): 4.3 nM | Top (MFI) (Rhesus SLC34A2 [7]): 36500 MFI | EC50 (human SLC34A2 [8]): 2.73 nM | Top (MFI) (human SLC34A2 [8]): 30800 MFI | ADCC reporter EC50 (human SLC34A2 [9]): 4.23 nM | ADCC reporter Top (MFI) (human SLC34A2 [9]): 122000 MFI

B3: xi90G10H7 hIgG1 (antibody, V domains shown)
VH: QVQLQQPGAVLVKPGASVKMSCKASGYTFTSYIIHWVKQTPGQGLEWVGAIYPGNGDASSIQKFKGKATLTVDKSSSTAYMQLSSLTSADSAVYYCARGHYYGSAAWFAYWGQGTLVTVSA
VL: DILLTQSPAILSVSPGERVSFSCRASQNIGTGIHWYQQRTNGSLRLLIKYASESISGIPSRFSGSGSGTDFTLSINSVESEDIADYYCQQSNSWPLTFGAGTKLELK
notes: chimeric, hIgG1
ADCC reporter EC50 (human SLC34A2 [10]): 2.3 nM | ADCC reporter Top (MFI) (human SLC34A2 [10]): 397000 MFI | EC50 (human SLC34A2 [11]): 1.52 nM | Top (MFI) (human SLC34A2 [11]): 114000 MFI | EC50 (human SLC34A2 [12]): 2.77 nM | Top (MFI) (human SLC34A2 [12]): 9920 MFI | EC50 (human SLC34A2 [3]): 3.9 nM | Top (MFI) (human SLC34A2 [3]): 72900 MFI | EC50 (Rhesus SLC34A2 [13]): 2.19 nM | Top (MFI) (Rhesus SLC34A2 [13]): 18500 MFI | EC50 (Cynomolgus SLC34A2): 2.4 nM | Top (MFI) (Cynomolgus SLC34A2): 4560 MFI | EC50 (human SLC34A2 [14]): 2.14 nM | Top (MFI) (human SLC34A2 [14]): 43300 MFI | EC50 (Rhesus SLC34A2 [7]): 3.5 nM | Top (MFI) (Rhesus SLC34A2 [7]): 47400 MFI | EC50 (human SLC34A2 [8]): 1.14 nM | Top (MFI) (human SLC34A2 [8]): 32200 MFI | cytotoxicity EC50 (human SLC34A2 [15]): 0.28 nM | cytotoxicity Inhibition % (human SLC34A2 [15]): 103%
